# In PMC7193609, “DNA replication machinery prevents Rad52-dependent single-strand annealing that leads to gross chromosomal rearrangements at centromeres”:
# Target: T1, Rad52-6His-3Flag (wild type) (Schizosaccharomyces pombe (fission …, UniProt P36592 1-469))
# T1 sequence: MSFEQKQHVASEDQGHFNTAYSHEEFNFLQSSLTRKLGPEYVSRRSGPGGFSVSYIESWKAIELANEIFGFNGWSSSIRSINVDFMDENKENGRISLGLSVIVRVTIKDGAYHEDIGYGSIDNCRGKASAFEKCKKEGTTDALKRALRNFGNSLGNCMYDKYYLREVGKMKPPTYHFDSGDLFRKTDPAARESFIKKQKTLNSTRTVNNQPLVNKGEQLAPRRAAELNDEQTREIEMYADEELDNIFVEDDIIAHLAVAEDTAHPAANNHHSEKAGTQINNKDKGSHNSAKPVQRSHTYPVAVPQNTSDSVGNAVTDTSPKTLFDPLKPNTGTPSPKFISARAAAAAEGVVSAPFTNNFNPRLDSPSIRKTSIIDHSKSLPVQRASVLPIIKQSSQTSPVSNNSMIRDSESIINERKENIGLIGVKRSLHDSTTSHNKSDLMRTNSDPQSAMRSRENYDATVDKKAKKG
# Experiment: EMSA; 0-200 nM Rad52, 2 nM DNA; complexes retained in well; EMSA: 32 mM Tris-HCl pH 7.8, 40 mM KCl, 0.8 mM DTT, 0.08 mg/mL BSA, 30 °C, 10 min; 10% native PAGE in 1x TAE
# Settings: protein: recombinant; tags: C-terminal 6His-3Flag; label: 5'-32P; single strand, 48 nt
binder,measurement,value
GAAGCATTTATCAGGGTTATTGTCTCATGAGCGGATACATATTTGAAT (ssDNA) [Oligo211],binding result,binds
